This assay deals with SARS-CoV-2 Beta S蛋白 (假病毒) (SARS-CoV-2 Beta, UniProt P0DTC2 14-1273). Nature of the assay: cell-based or functional assay.

B1: 抗体Amb1 (antibody, V domains shown)
VH: EVQLLESGTEVKKPGSSVKVSCKASGGTFSSYAISWVRQAPGQGLEWMGGIIPILGIANYAQKFQGRVTITADKSTSTAYMELSSLRSEDTAVYYCARERGYSGYGAAYYFDYWGQGTLVTVSS
VL: QSVLTQAPSVSGAPGQSVTISCTGSSSNIGAGYDVHWYQQLPGTAPKLLIYGNNNRPSGVPDRFSGSKSGTSASLAITGLQAEDEADYYCQSYDSSLSKGVFGGGTKLTVL
As to B1, the “假病毒中和 IC50” value came to 0.0266 µg/mL.

B2: 抗体Amb2 (antibody, V domains shown)
VH: EVQLLESGPGLVKPSETLSLTCTVSGGSISNSSYYWGWIRQPPGKGLEWIGSIYYSGSTYYNPSLKSRVTISVDTSKNQFSLKLSSVTAADTGVYYCASWLYGDPISFDYWGQGTLVTVSS
VL: not shown
As for B2, the “假病毒中和 IC50” value was 0.0452 µg/mL.

Values taken from patent CN115043938A (DUAN LIANGWEI; JIANG ZHIHUA; WANG HUI, dated 2022).
